Assay results published in patent US20160264649A1.

Key:
Test in all cases: cell-based or functional assay
[1] = target: HIV-1 Env of isolate MGRM-D-029 (subtype D) (HIV-1)
[2] = target: HIV-1 Env of pseudovirus isolate MGRM-G-017 (subtype G) (HIV-1)
[3] = target: HIV-1 Env of isolate MGRM-F1-008 (subtype F) (HIV-1)
[4] = target: HIV-1 Env of pseudovirus isolate MGRM-G-013 (subtype G) (HIV-1)
[5] = target: HIV-1 Env of pseudovirus isolate MGRM-G-004 (subtype G) (HIV-1)
[6] = target: HIV-1 Env of isolate MGRM-D-001 (subtype D) (HIV-1)
[7] = target: HIV-1 Env of isolate MGRM-F1-010 (subtype F) (HIV-1)
[8] = target: HIV-1 Env of isolate MGRM-D-013 (subtype D) (HIV-1)
[9] = target: HIV-1 Env of isolate MGRM-D-024 (subtype D) (HIV-1)
[10] = target: HIV-1 Env of isolate MGRM-F1-022 (subtype F) (HIV-1)
[11] = target: HIV-1 Env of isolate MGRM-D-021 (subtype D) (HIV-1)
[12] = target: HIV-1 Env of isolate MGRM-F1-012 (subtype F) (HIV-1)
[13] = target: HIV-1 Env of isolate MGRM-D-014 (subtype D) (HIV-1)
[14] = target: HIV-1 Env of isolate MGRM-D-012 (subtype D) (HIV-1)
[15] = target: HIV-1 Env of isolate 92UG114 (subtype D) (HIV-1)
[16] = target: HIV-1 Env of isolate MGRM-F1-023 (subtype F) (HIV-1)
[17] = target: HIV-1 Env of pseudovirus isolate MGRM-G-027 (subtype G) (HIV-1)
[18] = target: HIV-1 Env of isolate MGRM-F1-018 (subtype F) (HIV-1)
[19] = target: HIV-1 Env of pseudovirus isolate MGRM-G-019 (subtype G) (HIV-1)
[20] = target: HIV-1 Env of isolate MGRM-D-004 (subtype D) (HIV-1)
[21] = target: HIV-1 Env of isolate 92UG001 (subtype D) (HIV-1)
[22] = target: HIV-1 Env of isolate 92UG046 (subtype D) (HIV-1)
[23] = target: HIV-1 Env of isolate 98CN006 (subtype CRF08_BC) (HIV-1)
[24] = target: HIV-1 Env of pseudovirus isolate MGRM-G-028 (subtype G) (HIV-1)
[25] = target: HIV-1 Env of isolate MGRM-D-016 (subtype D) (HIV-1)
[26] = target: HIV-1 Env of pseudovirus isolate MGRM-G-015 (subtype G) (HIV-1)
[27] = target: HIV-1 Env of isolate MGRM-D-018 (subtype D) (HIV-1)
[28] = target: HIV-1 Env of isolate MGRM-F1-013 (subtype F) (HIV-1)
[29] = target: HIV-1 Env of isolate MGRM-D-011 (subtype D) (HIV-1)
[30] = target: HIV-1 Env of isolate MGRM-F1-004 (subtype F) (HIV-1)
[31] = target: HIV-1 Env of isolate MGRM-D-022 (subtype D) (HIV-1)
[32] = target: HIV-1 Env of pseudovirus isolate MGRM-G-006 (subtype G) (HIV-1)
[33] = target: HIV-1 Env of pseudovirus isolate MGRM-G-011 (subtype G) (HIV-1)
[34] = target: HIV-1 Env of isolate MGRM-F1-021 (subtype F) (HIV-1)
[35] = target: HIV-1 Env of pseudovirus isolate MGRM-G-024 (subtype G) (HIV-1)
[36] = target: HIV-1 Env of isolate MGRM-F1-016 (subtype F) (HIV-1)
[37] = target: HIV-1 Env of isolate MGRM-D-003 (subtype D) (HIV-1)
[38] = target: HIV-1 Env of isolate MGRM-F1-017 (subtype F) (HIV-1)
[39] = target: HIV-1 Env of isolate MGRM-D-026 (subtype D) (HIV-1)
[40] = target: HIV-1 Env of pseudovirus isolate MGRM-G-009 (subtype G) (HIV-1)
[41] = target: HIV-1 Env of isolate 98CN009 (subtype CRF07_BC) (HIV-1)
[42] = target: HIV-1 Env of isolate 92UG005 (subtype D) (HIV-1)
[43] = target: HIV-1 Env of isolate MGRM-D-005 (subtype D) (HIV-1)
[44] = target: HIV-1 Env of isolate MGRM-D-008 (subtype D) (HIV-1)
[45] = target: HIV-1 Env of isolate MGRM-D-002 (subtype D) (HIV-1)
[46] = target: HIV-1 Env of pseudovirus isolate MGRM-G-001 (subtype G) (HIV-1)
[47] = target: HIV-1 Env of isolate MGRM-D-020 (subtype D) (HIV-1)
[48] = target: HIV-1 Env of isolate MGRM-F1-020 (subtype F) (HIV-1)
[49] = target: HIV-1 Env of pseudovirus isolate MGRM-G-025 (subtype G) (HIV-1)
[50] = target: HIV-1 Env of pseudovirus isolate MGRM-G-014 (subtype G) (HIV-1)
[51] = target: HIV-1 Env of isolate 92UG024 (subtype D) (HIV-1)
[52] = target: HIV-1 Env of isolate MGRM-F1-015 (subtype F) (HIV-1)
[53] = target: HIV-1 Env of pseudovirus isolate MGRM-G-016 (subtype G) (HIV-1)
[54] = target: HIV-1 Env of isolate MGRM-F1-006 (subtype F) (HIV-1)
[55] = target: envelope of aMLV pseudovirus (negative control)
[56] = target: HIV-1 Env of isolate MGRM-F1-014 (subtype F) (HIV-1)
[57] = target: HIV-1 Env of isolate MGRM-D-028 (subtype D) (HIV-1)
[58] = target: HIV-1 Env of isolate MGRM-D-019 (subtype D) (HIV-1)

B1: PGT-128 (antibody, V domains shown)
VH: QPQLQESGPTLVEASETLSLTCAVSGDSTAACNSFWGWVRQPPGKGLEWVGSLSHCASYWNRGWTYHNPSLKSRLTLALDTPKNLVFLKLNSVTAADTATYYCARFGGEVLRYTDWPKPAWVDLWGRGTLVTVSS
VL: QSALTQPPSASGSPGQSITISCTGTSNNFVSWYQQHAGKAPKLVIYDVNKRPSGVPDRFSGSKSGNTASLTVSGLQTDDEAVYYCGSLVGNWDVIFGGGTKLTVL
IC50 (neutralization) [1]: > 50 µg/mL | IC50 [2]: 0.319 µg/mL | IC50 (neutralization) [3]: > 50 µg/mL | IC50 [4]: 0.995 µg/mL | IC50 [5]: > 50 µg/mL | IC50 (neutralization) [6]: 0.138 µg/mL | IC50 (neutralization) [7]: 16.7 µg/mL | IC50 (neutralization) [8]: 8.85 µg/mL | IC50 (neutralization) [9]: 0.067 µg/mL | IC50 (neutralization) [10]: 4.54 µg/mL | IC50 (neutralization) [11]: 0.014 µg/mL | IC50 (neutralization) [12]: 0.007 µg/mL | IC50 (neutralization) [13]: 0.013 µg/mL | IC50 (neutralization) [14]: > 50 µg/mL | IC50 (neutralization) [15]: 0.083 µg/mL | IC50 (neutralization) [16]: 0.007 µg/mL | IC50 [17]: 0.313 µg/mL | IC50 (neutralization) [18]: 0.023 µg/mL | IC50 [19]: 0.01 µg/mL | IC50 (neutralization) [20]: 24.9 µg/mL | IC50 (neutralization) [21]: > 50 µg/mL | IC50 (neutralization) [22]: > 50 µg/mL | IC50 (neutralization) [23]: 0.015 µg/mL | IC50 [24]: 0.008 µg/mL | IC50 (neutralization) [25]: > 50 µg/mL | IC50 [26]: > 50 µg/mL | IC50 (neutralization) [27]: 0.008 µg/mL | IC50 (neutralization) [28]: 12.7 µg/mL | IC50 (neutralization) [29]: 0.007 µg/mL | IC50 (neutralization) [30]: 0.027 µg/mL | IC50 (neutralization) [31]: > 50 µg/mL | IC50 [32]: > 50 µg/mL | IC50 [33]: 8.21 µg/mL | IC50 (neutralization) [34]: > 50 µg/mL | IC50 [35]: 0.095 µg/mL | IC50 (neutralization) [36]: 1.21 µg/mL | IC50 (neutralization) [37]: 0.019 µg/mL | IC50 (neutralization) [38]: 11.7 µg/mL | IC50 (neutralization) [39]: > 50 µg/mL | IC50 [40]: > 50 µg/mL | IC50 (neutralization) [41]: 0.025 µg/mL | IC50 (neutralization) [42]: 0.018 µg/mL | IC50 (neutralization) [43]: 0.051 µg/mL | IC50 (neutralization) [44]: 0.033 µg/mL | IC50 (neutralization) [45]: 0.011 µg/mL | IC50 [46]: 0.019 µg/mL | IC50 (neutralization) [47]: 0.011 µg/mL | IC50 (neutralization) [48]: 0.355 µg/mL | IC50 [49]: 0.017 µg/mL | IC50 [50]: 0.004 µg/mL | IC50 (neutralization) [51]: > 50 µg/mL | IC50 (neutralization) [52]: > 50 µg/mL | IC50 [53]: > 50 µg/mL | IC50 (neutralization) [54]: 0.763 µg/mL | IC50 [55]: > 50 µg/mL | IC50 (neutralization) [56]: 0.277 µg/mL | IC50 (neutralization) [57]: > 50 µg/mL | IC50 (neutralization) [58]: > 50 µg/mL

B2: PGT-130 (antibody, V domains shown)
VH: QVQLQESGPGLVKPAETLSLTCSVSGESINTGHYYWGWVRQVPGKGLEWIGHIHYTTAVLHNPSLKSRLTIKIYTLRNQITLRLSNVTAADTAVYHCVRSGGDILYYYEWQKPHWFSPWGPGIHVTVSS
VL: QSALTQPPSASGSLGQSVTISCNGTSSDIGGWNFVSWYQQFPGRAPRLIIFEVNKRPSGVPGRFSGSKSGNSASLTVSGLQSDDEGQYFCSSLFGRWDVVFGGGTKLTVL
IC50 (neutralization) [1]: > 50 µg/mL | IC50 [2]: > 50 µg/mL | IC50 (neutralization) [3]: 0.065 µg/mL | IC50 [4]: > 50 µg/mL | IC50 [5]: > 50 µg/mL | IC50 (neutralization) [6]: > 50 µg/mL | IC50 (neutralization) [7]: > 50 µg/mL | IC50 (neutralization) [8]: 0.429 µg/mL | IC50 (neutralization) [9]: > 50 µg/mL | IC50 (neutralization) [10]: > 50 µg/mL | IC50 (neutralization) [11]: 0.156 µg/mL | IC50 (neutralization) [12]: > 50 µg/mL | IC50 (neutralization) [13]: 0.061 µg/mL | IC50 (neutralization) [14]: > 50 µg/mL | IC50 (neutralization) [15]: > 50 µg/mL | IC50 (neutralization) [16]: 0.05 µg/mL | IC50 [17]: 4.14 µg/mL | IC50 (neutralization) [18]: > 50 µg/mL | IC50 [19]: 27.9 µg/mL | IC50 (neutralization) [20]: 1.21 µg/mL | IC50 (neutralization) [21]: > 50 µg/mL | IC50 (neutralization) [22]: > 50 µg/mL | IC50 (neutralization) [23]: 0.258 µg/mL | IC50 [24]: 0.074 µg/mL | IC50 (neutralization) [25]: > 50 µg/mL | IC50 [26]: > 50 µg/mL | IC50 (neutralization) [27]: 0.049 µg/mL | IC50 (neutralization) [28]: > 50 µg/mL | IC50 (neutralization) [29]: 0.019 µg/mL | IC50 (neutralization) [30]: 0.023 µg/mL | IC50 (neutralization) [31]: > 50 µg/mL | IC50 [32]: > 50 µg/mL | IC50 [33]: > 50 µg/mL | IC50 (neutralization) [34]: > 50 µg/mL | IC50 [35]: 5.84 µg/mL | IC50 (neutralization) [36]: > 50 µg/mL | IC50 (neutralization) [37]: 0.651 µg/mL | IC50 (neutralization) [38]: > 50 µg/mL | IC50 (neutralization) [39]: > 50 µg/mL | IC50 [40]: > 50 µg/mL | IC50 (neutralization) [41]: 0.136 µg/mL | IC50 (neutralization) [42]: 0.959 µg/mL | IC50 (neutralization) [43]: > 50 µg/mL | IC50 (neutralization) [44]: > 50 µg/mL | IC50 (neutralization) [45]: 0.869 µg/mL | IC50 [46]: 0.0198 µg/mL | IC50 (neutralization) [47]: 24.7 µg/mL | IC50 (neutralization) [48]: 9.73 µg/mL | IC50 [49]: 8.45 µg/mL | IC50 [50]: 2.23 µg/mL | IC50 (neutralization) [51]: > 50 µg/mL | IC50 (neutralization) [52]: > 50 µg/mL | IC50 [53]: > 50 µg/mL | IC50 (neutralization) [54]: > 50 µg/mL | IC50 [55]: > 50 µg/mL | IC50 (neutralization) [56]: 11.8 µg/mL | IC50 (neutralization) [57]: 0.825 µg/mL | IC50 (neutralization) [58]: > 50 µg/mL
